Results from patent US20220096649A1.

Key:
SIRP-α human v1 (human) = SIRP-α human v1 (human) (UniProt P78324); experiment: SPR, antibody on GLC chip, SIRP as analyte
[1] = target: SIRP-α mouse BALBc (mouse (BALBc)) (UniProt P97797); experiment: SPR, antibody on GLC chip, SIRP as analyte
[2] = target: SIRP-α mouse NOD (mouse (NOD)) (UniProt P97797); experiment: SPR, antibody on GLC chip, SIRP as analyte
[3] = target: SIRP-α mouse BALBc (mouse (BALBc)) (UniProt P97797); experiment: SPR, antibody on GLC chip, SIRP as analyte; Mouse BALBc SIRP-α allele
[4] = target: SIRP-α mouse NOD (mouse (NOD)) (UniProt P97797); experiment: SPR, antibody on GLC chip, SIRP as analyte; Mouse NOD SIRP-α allele

SIRP-α human v1 (human), sequence (P78324 31-149): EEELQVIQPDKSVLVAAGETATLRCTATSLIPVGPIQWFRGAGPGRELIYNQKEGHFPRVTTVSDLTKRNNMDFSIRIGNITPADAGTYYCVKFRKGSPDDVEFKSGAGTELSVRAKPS

B1: Anti-SIRP-α antibody 119, light chain wt, heavy chain wt (antibody, V domains shown)
VH: EVQLLESGGGVVQPGGSLRLSCAASGFSFSNFAMTWVRQAPGEGLEWVSTIGSGDTYYADSVKGRFTISRDNSKNTLYLQMNSLRAEDTAVYYCAKDSTVSWSGDFFDYWGLGTLVTVSS
VL: EIVLTQSPATLSVSPGERATFSCRASQNVKNDLAWYQQRPGQAPRLLIYAARIRETGIPERFSGSGSGTEFTLTITSLQSEDFAVYYCQQYYDWPPFTFGGGTKVEIK
Kd (SIRP-α human v1 (human)): 0.18 nM

B2: Anti-SIRP-α antibody 119, light chain wt, heavy chain Mut (antibody, V domains shown)
VH: EVQLLESGGGVVQPGGSLRLSCAASGFSFSNFAVTWVRQAPGKGLEWVSTIGSGDTYYADSVKGRFTISRDNSKNTLYLQMNSLRAEDTAVYYCAKDSTVSWSGDFFDYWGQGTLVTVSS
VL: EIVLTQSPATLSVSPGERATFSCRASQNVKNDLAWYQQRPGQAPRLLIYAARIRETGIPERFSGSGSGTEFTLTITSLQSEDFAVYYCQQYYDWPPFTFGGGTKVEIK
Kd (SIRP-α human v1 (human)): 0.25 nM

B3: Anti-SIRP-α antibody 136, light chain Mut_Q38E, heavy chain Mut (antibody, V domains shown)
VH: EVQLVESGGGVVQPGRSLRLSCAASGFTFSSYDVNWVRQAPGKGLEWVSLISGSGEIIYYADSVKGRFTISRDNSKNTLYLQMNSLRAEDTAVYYCAKENNRYRFFDDWGQGTLVTVSS
VL: EIVLTQSPGTLSLSPGERATLSCRASQSVYTYLAWYQEKPGQAPRLLIYGASSRATGIPDRFSGSGSGTEFTLTISSLQSEDFAVYYCQQYYDRPPLTFGGGTKVEIK
Kd [1]: 3 nM
Kd (SIRP-α human v1 (human)): 6.2 nM
Kd [2]: 6 nM

B4: Anti-SIRP-α antibody 136, light chain Mut_I2T, heavy chain Mut_V34M (antibody, V domains shown)
VH: EVQLVESGGGVVQPGRSLRLSCAASGFTFSSYDMNWVRQAPGKGLEWVSLISGSGEIIYYADSVKGRFTISRDNSKNTLYLQMNSLRAEDTAVYYCAKENNRYRFFDDWGQGTLVTVSS
VL: ETVLTQSPGTLSLSPGERATLSCRASQSVYTYLAWYQQKPGQAPRLLIYGASSRATGIPDRFSGSGSGTEFTLTISSLQSEDFAVYYCQQYYDRPPLTFGGGTKVEIK
Kd [1]: 0.36 nM
Kd (SIRP-α human v1 (human)): 0.55 nM
Kd [2]: 0.6 nM

B5: Hum1/AB21_HC_Mutall (antibody, V domains shown)
VH: EVQLVESGGGVVQPGGSLRLSCAASGFTFSSNAMSWVRQAPGKGLEWVAGISAGGSDTYYPASVKGRFTISRDNSKNTLYLQMNSLRAEDTAVYYCARETWNHLFDYWGQGTLVTVSS
VL: SYELTQPPSVSVSPGQTARITCSGGSYSSYYYAWYQQKPGQAPVTLIYSDDKRPSNIPERFSGSSSGTTVTLTISGVQAEDEADYYCGGYDQSSYTNPFGGGTKLTVL
Kd [1]: 7.9 nM
Kd (SIRP-α human v1 (human)): 0.0053 nM
Kd [2]: 3.7 nM

B6: Hum8/AB21_HC_Mutall (antibody, V domains shown)
VH: EVQLVESGGGVVQPGGSLRLSCAASGFTFSSNAMSWVRQAPGKGLEWVAGISAGGSDTYYPASVKGRFTISRDNSKNTLYLQMNSLRAEDTAVYYCARETWNHLFDYWGQGTLVTVSS
VL: SYELTQPPSVSVSPGQTARITCSGGAYSSYYYAWYQQKPGQAPVLVIYSDSKRPSGIPERFSGSSSGTTVTLTISGVQAEDEADYYCGGYDQSSYTNPFGGGTKLTVL
Kd [3]: 71 nM
Kd (SIRP-α human v1 (human)): 0.02 nM
Kd [4]: 28 nM

B7: Hum9/AB21_HC_Mutall (antibody, V domains shown)
VH: EVQLVESGGGVVQPGGSLRLSCAASGFTFSSNAMSWVRQAPGKGLEWVAGISAGGSDTYYPASVKGRFTISRDNSKNTLYLQMNSLRAEDTAVYYCARETWNHLFDYWGQGTLVTVSS
VL: SYELTQPPSVSVSPGQTARITCSGGAYSSYYYAWYQQKPGQAPVLVIYSDDKRPSGIPERFSGSSSGTTVTLTISGVQAEDEADYYCGGYDQSSYTNPFGGGTKLTVL
Kd [3]: 140 nM
Kd (SIRP-α human v1 (human)): 0.012 nM
Kd [4]: 24 nM

B8: Anti-SIRP-α antibody 119, light chain Mut, heavy chain Mut (antibody, V domains shown)
VH: EVQLLESGGGVVQPGGSLRLSCAASGFSFSNFAVTWVRQAPGKGLEWVSTIGSGDTYYADSVKGRFTISRDNSKNTLYLQMNSLRAEDTAVYYCAKDSTVSWSGDFFDYWGQGTLVTVSS
VL: EIVLTQSPATLSVSPGERATLSCRASQNVKNDLAWYQQKPGQAPRLLIYAARIRETGIPARFSGSGSGTEFTLTISSLQSEDFAVYYCQQYYDWPPFTFGGGTKVEIK
Kd (SIRP-α human v1 (human)): 0.32 nM

B9: Anti-SIRP-α antibody 119, light chain Mut, heavy chain Mut_V34M (antibody, V domains shown)
VH: EVQLLESGGGVVQPGGSLRLSCAASGFSFSNFAMTWVRQAPGKGLEWVSTIGSGDTYYADSVKGRFTISRDNSKNTLYLQMNSLRAEDTAVYYCAKDSTVSWSGDFFDYWGQGTLVTVSS
VL: EIVLTQSPATLSVSPGERATLSCRASQNVKNDLAWYQQKPGQAPRLLIYAARIRETGIPARFSGSGSGTEFTLTISSLQSEDFAVYYCQQYYDWPPFTFGGGTKVEIK
Kd (SIRP-α human v1 (human)): 0.22 nM

B10: Anti-SIRP-α antibody 135, light chain wt, heavy chain wt (antibody, V domains shown)
VH: DVQLVESGGGVVRPGESLRLSCAASGFSFSIYAMSWVRQAPGEGLEWVSTIGADDTYYADSVKGRFTISRDNSKNTLYLQMNSLRAEDTAVYYCAKDSTVGWSGDFFDYWGLGTLVTVSS
VL: EIVLTQSPATLSVSPGERVTFSCRASQNVRSDIAWYQQKPGQAPRLLIYAASSRDTGIPDRFSGSGSGTDFTLTISSLQSEDFGVYYCQQYYDWPPFTFGGGTKVEIK
Kd (SIRP-α human v1 (human)): 0.15 nM

B11: Anti-SIRP-α antibody 135, light chain Mut, heavy chain wt (antibody, V domains shown)
VH: DVQLVESGGGVVRPGESLRLSCAASGFSFSIYAMSWVRQAPGEGLEWVSTIGADDTYYADSVKGRFTISRDNSKNTLYLQMNSLRAEDTAVYYCAKDSTVGWSGDFFDYWGLGTLVTVSS
VL: EIVLTQSPATLSVSPGERVTLSCRASQNVRSDIAWYQQKPGQAPRLLIYAASSRDTGIPARFSGSGSGTDFTLTISSLQSEDFGVYYCQQYYDWPPFTFGGGTKVEIK
Kd (SIRP-α human v1 (human)): 0.15 nM

B12: Anti-SIRP-α antibody 135, light chain wt, heavy chain Mut (antibody, V domains shown)
VH: EVQLVESGGGVVQPGGSLRLSCAASGFSFSIYAVSWVRQAPGKGLEWVSTIGADDTYYADSVKGRFTISRDNSKNTLYLQMNSLRAEDTAVYYCAKDSTVGWSGDFFDYWGQGTLVTVSS
VL: EIVLTQSPATLSVSPGERVTFSCRASQNVRSDIAWYQQKPGQAPRLLIYAASSRDTGIPDRFSGSGSGTDFTLTISSLQSEDFGVYYCQQYYDWPPFTFGGGTKVEIK
Kd (SIRP-α human v1 (human)): 0.18 nM

B13: Anti-SIRP-α antibody 135, light chain Mut, heavy chain Mut (antibody, V domains shown)
VH: EVQLVESGGGVVQPGGSLRLSCAASGFSFSIYAVSWVRQAPGKGLEWVSTIGADDTYYADSVKGRFTISRDNSKNTLYLQMNSLRAEDTAVYYCAKDSTVGWSGDFFDYWGQGTLVTVSS
VL: EIVLTQSPATLSVSPGERVTLSCRASQNVRSDIAWYQQKPGQAPRLLIYAASSRDTGIPARFSGSGSGTDFTLTISSLQSEDFGVYYCQQYYDWPPFTFGGGTKVEIK
Kd (SIRP-α human v1 (human)): 0.19 nM

B14: Anti-SIRP-α antibody 135, light chain wt, heavy chain Mut_V34M (antibody, V domains shown)
VH: EVQLVESGGGVVQPGGSLRLSCAASGFSFSIYAMSWVRQAPGKGLEWVSTIGADDTYYADSVKGRFTISRDNSKNTLYLQMNSLRAEDTAVYYCAKDSTVGWSGDFFDYWGQGTLVTVSS
VL: EIVLTQSPATLSVSPGERVTFSCRASQNVRSDIAWYQQKPGQAPRLLIYAASSRDTGIPDRFSGSGSGTDFTLTISSLQSEDFGVYYCQQYYDWPPFTFGGGTKVEIK
Kd (SIRP-α human v1 (human)): 0.15 nM

B15: Anti-SIRP-α antibody 119, light chain Mut, heavy chain wt (antibody, V domains shown)
VH: EVQLLESGGGVVQPGGSLRLSCAASGFSFSNFAMTWVRQAPGEGLEWVSTIGSGDTYYADSVKGRFTISRDNSKNTLYLQMNSLRAEDTAVYYCAKDSTVSWSGDFFDYWGLGTLVTVSS
VL: EIVLTQSPATLSVSPGERATLSCRASQNVKNDLAWYQQKPGQAPRLLIYAARIRETGIPARFSGSGSGTEFTLTISSLQSEDFAVYYCQQYYDWPPFTFGGGTKVEIK
Kd (SIRP-α human v1 (human)): 0.21 nM

B16: Anti-SIRP-α antibody 136, light chain wt, heavy chain Mut (antibody, V domains shown)
VH: EVQLVESGGGVVQPGRSLRLSCAASGFTFSSYDVNWVRQAPGKGLEWVSLISGSGEIIYYADSVKGRFTISRDNSKNTLYLQMNSLRAEDTAVYYCAKENNRYRFFDDWGQGTLVTVSS
VL: ETVLTQSPGTLTLSPGERATLTCRASQSVYTYLAWYQEKPGQAPRLLIYGASSRATGIPDRFSGSGSGTEFTLTISSLQSEDFAVYYCQQYYDRPPLTFGGGTKVEIK
Kd [1]: 0.42 nM
Kd (SIRP-α human v1 (human)): 0.56 nM
Kd [2]: 0.68 nM

B17: Anti-SIRP-α antibody 136, light chain Mut, heavy chain Mut (antibody, V domains shown)
VH: EVQLVESGGGVVQPGRSLRLSCAASGFTFSSYDVNWVRQAPGKGLEWVSLISGSGEIIYYADSVKGRFTISRDNSKNTLYLQMNSLRAEDTAVYYCAKENNRYRFFDDWGQGTLVTVSS
VL: EIVLTQSPGTLSLSPGERATLSCRASQSVYTYLAWYQQKPGQAPRLLIYGASSRATGIPDRFSGSGSGTEFTLTISSLQSEDFAVYYCQQYYDRPPLTFGGGTKVEIK
Kd [1]: 3.1 nM
Kd (SIRP-α human v1 (human)): 7.3 nM
Kd [2]: 5.2 nM

B18: Anti-SIRP-α antibody 136, light chain Mut_I2T, heavy chain Mut (antibody, V domains shown)
VH: EVQLVESGGGVVQPGRSLRLSCAASGFTFSSYDVNWVRQAPGKGLEWVSLISGSGEIIYYADSVKGRFTISRDNSKNTLYLQMNSLRAEDTAVYYCAKENNRYRFFDDWGQGTLVTVSS
VL: ETVLTQSPGTLSLSPGERATLSCRASQSVYTYLAWYQQKPGQAPRLLIYGASSRATGIPDRFSGSGSGTEFTLTISSLQSEDFAVYYCQQYYDRPPLTFGGGTKVEIK
Kd [1]: 0.42 nM
Kd (SIRP-α human v1 (human)): 0.72 nM
Kd [2]: 0.68 nM

B19: Anti-SIRP-α antibody 136, light chain Mut_S12T, heavy chain Mut (antibody, V domains shown)
VH: EVQLVESGGGVVQPGRSLRLSCAASGFTFSSYDVNWVRQAPGKGLEWVSLISGSGEIIYYADSVKGRFTISRDNSKNTLYLQMNSLRAEDTAVYYCAKENNRYRFFDDWGQGTLVTVSS
VL: EIVLTQSPGTLTLSPGERATLSCRASQSVYTYLAWYQQKPGQAPRLLIYGASSRATGIPDRFSGSGSGTEFTLTISSLQSEDFAVYYCQQYYDRPPLTFGGGTKVEIK
Kd [1]: 2.1 nM
Kd (SIRP-α human v1 (human)): 4.9 nM
Kd [2]: 2.9 nM

B20: Anti-SIRP-α antibody 136, light chain Mut_S22T, heavy chain Mut (antibody, V domains shown)
VH: EVQLVESGGGVVQPGRSLRLSCAASGFTFSSYDVNWVRQAPGKGLEWVSLISGSGEIIYYADSVKGRFTISRDNSKNTLYLQMNSLRAEDTAVYYCAKENNRYRFFDDWGQGTLVTVSS
VL: EIVLTQSPGTLSLSPGERATLTCRASQSVYTYLAWYQQKPGQAPRLLIYGASSRATGIPDRFSGSGSGTEFTLTISSLQSEDFAVYYCQQYYDRPPLTFGGGTKVEIK
Kd [1]: 1.6 nM
Kd (SIRP-α human v1 (human)): 5 nM
Kd [2]: 2.4 nM
